Measurements published in patent US20170165365A1 (SYMPHOGEN A S, published 2017).

T1: human HER4 antigen (human, UniProt Q15303 26-649, limits assumed)
T1 construct: Antigen coated for ELISA
T1 sequence (looked up): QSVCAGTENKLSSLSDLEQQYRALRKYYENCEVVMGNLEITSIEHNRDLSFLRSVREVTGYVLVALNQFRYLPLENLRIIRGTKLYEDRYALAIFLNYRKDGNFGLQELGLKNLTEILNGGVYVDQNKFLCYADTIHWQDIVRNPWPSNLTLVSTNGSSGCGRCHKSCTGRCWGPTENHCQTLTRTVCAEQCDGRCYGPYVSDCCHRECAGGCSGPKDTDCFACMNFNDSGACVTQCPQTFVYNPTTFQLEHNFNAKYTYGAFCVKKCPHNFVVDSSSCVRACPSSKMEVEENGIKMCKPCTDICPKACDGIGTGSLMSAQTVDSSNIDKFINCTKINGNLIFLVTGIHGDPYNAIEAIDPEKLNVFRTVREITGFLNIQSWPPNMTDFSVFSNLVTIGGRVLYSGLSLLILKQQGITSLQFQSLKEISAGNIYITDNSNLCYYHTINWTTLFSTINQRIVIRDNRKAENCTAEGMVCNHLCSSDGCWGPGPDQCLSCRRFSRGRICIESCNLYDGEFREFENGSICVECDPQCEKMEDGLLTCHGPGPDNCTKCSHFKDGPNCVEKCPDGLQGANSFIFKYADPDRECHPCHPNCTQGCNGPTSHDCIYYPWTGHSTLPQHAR

T2: murine HER4 antigen (mouse, UniProt Q61527 26-652, limits assumed)
T2 construct: In-house antigen coated for ELISA; also called mouse HER4
T2 sequence (looked up): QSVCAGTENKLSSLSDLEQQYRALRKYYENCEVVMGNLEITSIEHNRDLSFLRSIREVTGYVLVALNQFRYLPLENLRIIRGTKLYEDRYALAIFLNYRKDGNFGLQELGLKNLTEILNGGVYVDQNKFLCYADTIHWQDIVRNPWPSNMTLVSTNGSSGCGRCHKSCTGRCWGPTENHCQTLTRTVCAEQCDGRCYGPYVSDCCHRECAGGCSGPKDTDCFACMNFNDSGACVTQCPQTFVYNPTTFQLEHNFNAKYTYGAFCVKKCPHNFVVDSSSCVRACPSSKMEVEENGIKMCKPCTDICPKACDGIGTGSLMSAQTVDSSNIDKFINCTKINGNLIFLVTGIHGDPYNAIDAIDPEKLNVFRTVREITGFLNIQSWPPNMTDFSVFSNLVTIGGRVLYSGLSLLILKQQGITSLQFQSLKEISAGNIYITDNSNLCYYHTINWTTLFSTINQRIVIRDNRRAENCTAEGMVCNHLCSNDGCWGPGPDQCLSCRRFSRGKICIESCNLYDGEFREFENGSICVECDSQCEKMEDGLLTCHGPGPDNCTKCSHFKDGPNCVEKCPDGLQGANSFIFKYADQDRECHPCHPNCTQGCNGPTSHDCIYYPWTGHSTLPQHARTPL

B1: chimeric anti-HER2 antibody 4384 (antibody, V domains shown)
VH: QVQLQQPGTELVKPGASVKLSCKASGYTFTSHWMHWVKQRPGQGLEWIGNINPSNGGTNYNEKFKSRATLTVDKASSTAYMQLSSLTSEDSAVYYCARAYYDFSWFVYWGQGTLVTVS
VL: DIQMTQTSSSLSASLGDRVTISCRSSQDISNYLNWYQQKPDGTVKLLMYISRLHSGVPSRFSGSGSGTEYSLTISNLEQEDIATYFCQQGNTLPLTFGAGTKLELKR
notes: light chain entry is full length
B2: humanized anti-HER2 antibody 10704 (antibody, V domains shown)
VH: QVQLVQSGAEVKKPGASVKVSCKASGYTFTSHWMHWVRQAPGQGLEWMGNINPSSGGTNYNEKFKSRVTLTVDKSTSTAYMELSSLRSEDTAVYYCARAYYDFSWFVYWGQGTLVTVSS
VL: DIQMTQSPSSLSASVGDRVTITCRSSQDISNYLNWYQQKPGKAVKLLMYISRLHSGVPSRFSGSGSGTDYTFTISSLQPEDIATYYCQQGNTLPLTFGGGTKVEIK
B3: humanized anti-HER2 antibody 11145 (antibody, V domains shown)
VH: EVQLVESGGGLVKPGGSLRLSCAASGFTFSSYGMSWVRQAPGKGLEWVATISGGGSYTYYPDSVKGRFTISRDIAKSSLYLQMNSLRAEDTAVYYCARKGNYGNYGKLAYWGQGTTVTVSS
VL: DIQMTQSPSSLSASVGDRVTITCRASENIYSNLAWYQQKPGKAPKLLIYAATNLATGVPSRFSGSGSGTDYTLTISSLQPEDFASYYCQHFWGTPWTFGQGTKLEIK
B4: chimeric anti-EGFR antibody 1277 (antibody, V domains shown)
VH: EVQLVESGGGLVKPGESLKLSCAASGFAFSYSDMSWVRQTPEKRLEWVAYMSSAGDVTFYSDTVKGRFTISRDNAKNTLYLQVSSLKSEDTAIYYCVRHRDVAMDYWGQGTSVTVS
VL: DVVMTQTPLSLPVSLGDQASISCRSSQSLVHSNGNTYLHWYLQKPGQSPKLLIYKVSNRFSGVPDRFSGSGSGTDFTLKISRVEAEDLGVYFCSQSTHVPTFGGGTKLEIKR
notes: the light chain entry is full length
B5: humanized anti-HER3 antibody 11052 (antibody, V domains shown)
VH: QVQLQESGPGLVKPSQTLSLTCTVSGYSITSAYYWNWIRQFPGKGVEWMGYIGYSGRNTYNPSLKNRVTISRDTSKNQFSLKLSSVTAADTAVYYCSREGDYGYSDYWGQGTLVTVSS
VL: DIQMTQSPSSLSASVGDRVTVTCRASQDINNYLNWYQQKPGKAVKLLIYYTSRLQSGVPSRFSGSGSGTDYTLTISSLQPEDFATYFCQQSETLPWTFGQGTKLEIK

Columns and labels:
[1] = target: T3, cynomolgus EGFR antigen (cynomolgus monkey, UniProt A0A2K5WK39 25-645); experiment: ELISA, coated cy EGFR
T3 construct: In-house antigen; also called cynomolgus antigen
Procedure: (§1) Antibody-antigen binding was measured by ELISA with coated antigens. Human antigens were obtained from Sino Biologicals. All other antigens were produced in-house by transient expression in CHO or HEK293 cells. Chimeric and humanized antibodies, as well as an isotype control antibody, were incubated with the coated antigens at different concentrations. After wash, bound antibodies were detected by HRP-(horse radish peroxidase)-conjugated secondary antibodies.

[2] = target: T4, cynomolgus HER3 antigen (cynomolgus monkey, UniProt G7PIG5 20-643); experiment: ELISA, coated cy HER3
T4 construct: In-house antigen; also called cynomolgus antigen
Procedure: as §1

[3] = target: T5, human EGFR antigen (Sino Biologicals) (human, UniProt P00533 25-645); experiment: ELISA, coated hu EGFR
T5 construct: Bought soluble antigen; also called human antigen
Procedure: as §1

[4] = target: T6, human HER3 antigen (Sino Biologicals) (human, UniProt P21860 20-643); experiment: ELISA, coated hu HER3
T6 construct: Bought soluble antigen; also called human antigen
Procedure: as §1

[5] = target: T1, human HER4 antigen; experiment: ELISA, coated hu HER4
Procedure: as §1

[6] = target: T7, mouse EGFR antigen (mouse, UniProt Q01279 25-647, limits assumed); experiment: ELISA, coated mu EGFR
T7 construct: In-house antigen coated for ELISA; also called mouse antigen; murine EGFR
Procedure: as §1

[7] = target: T8, mouse HER2 antigen (mouse, UniProt P70424 23-653, limits assumed); experiment: ELISA, coated mu HER2
T8 construct: In-house antigen coated for ELISA; also called mouse antigen; murine HER2
Procedure: as §1

[8] = target: T9, mouse HER3 antigen (mouse, UniProt Q61526 20-641, limits assumed); experiment: ELISA, coated mu HER3
T9 construct: In-house antigen coated for ELISA; also called mouse antigen; murine HER3
Procedure: as §1

[9] = target: T2, murine HER4 antigen; experiment: ELISA, coated mu HER4
Procedure: as §1

[10] = target: cynomolgus HER2 antigen (cynomolgus monkey); experiment: SPR (ProteOn XPR36), IgG captured by anti-human Fc, soluble monovalent antigen, 1:1 fit
[11] = target: T10, human HER2 antigen (Sino Biologicals) (human, UniProt P04626 23-652); experiment: ELISA, coated hu HER2
T10 construct: Bought soluble antigen; also called human antigen
Procedure: as §1

[12] = target: T3, cynomolgus EGFR antigen; experiment: SPR (ProteOn XPR36), IgG captured by anti-human Fc, soluble monovalent antigen, 1:1 fit
Procedure: (§2) Kinetic binding analysis of the purified humanized variants was performed on a ProteOn™ XPR36 biosensor (BioRad, USA) employing an IgG capture assay as described by Canziani et al. (Anal. Biochem. (2004) 325:301-307) that allows for measurement of antibody affinities of whole IgG molecules against soluble antigen under monovalent conditions. Briefly, approximately 5000 resonance units (RU) of a monoclonal mouse anti-human IgG Fc antibody (GE Healthcare, Denmark) was conjugated to a GLC chip surface (BioRad, USA) according to the manufacturer's instructions, followed by capture of individual antibodies of the invention or a negative control on the anti-Fc sensor surface. […] Next, 250 μl monovalent antigen (Sino Biologicals) was injected at a flow rate of 50 μl/min in serial threefold dilutions from 100 nM stock to generate response curves. The chip surface was regenerated between cycles by stripping the captured antibody/antigen complexes off the surface with a 10-second injection of 3 M MgCl₂ (GE Healthcare, Denmark) repeated three times. Finally, binding responses were fitted to a Langmuir 1:1 binding model for calculation of the on-rate (kon or ka), off-rate (koff or kd) and affinity (KD) constants using double referencing.

[13] = target: T6, human HER3 antigen (Sino Biologicals); experiment: as above
Procedure: as §2

[14] = target: T4, cynomolgus HER3 antigen; experiment: as above
Procedure: as §2

T4 sequence (G7PIG5 entry or part of it): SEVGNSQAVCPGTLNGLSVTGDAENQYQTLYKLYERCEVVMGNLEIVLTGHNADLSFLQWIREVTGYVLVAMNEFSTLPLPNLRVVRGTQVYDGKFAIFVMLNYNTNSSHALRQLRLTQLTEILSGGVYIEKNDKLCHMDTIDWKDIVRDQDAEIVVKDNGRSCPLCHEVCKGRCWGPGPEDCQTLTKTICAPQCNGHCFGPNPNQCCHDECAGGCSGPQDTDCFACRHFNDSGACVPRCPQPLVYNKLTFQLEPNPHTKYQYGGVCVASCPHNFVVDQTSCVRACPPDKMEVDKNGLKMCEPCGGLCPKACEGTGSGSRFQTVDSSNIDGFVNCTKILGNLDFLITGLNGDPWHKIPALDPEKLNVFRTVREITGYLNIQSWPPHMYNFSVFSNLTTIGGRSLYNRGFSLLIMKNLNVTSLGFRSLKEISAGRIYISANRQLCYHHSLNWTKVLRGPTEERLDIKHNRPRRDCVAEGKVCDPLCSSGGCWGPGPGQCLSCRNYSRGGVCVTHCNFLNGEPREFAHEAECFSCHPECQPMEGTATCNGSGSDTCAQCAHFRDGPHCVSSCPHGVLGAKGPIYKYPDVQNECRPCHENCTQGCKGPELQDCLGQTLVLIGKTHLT
T8 sequence (P70424 23-653 limits assumed): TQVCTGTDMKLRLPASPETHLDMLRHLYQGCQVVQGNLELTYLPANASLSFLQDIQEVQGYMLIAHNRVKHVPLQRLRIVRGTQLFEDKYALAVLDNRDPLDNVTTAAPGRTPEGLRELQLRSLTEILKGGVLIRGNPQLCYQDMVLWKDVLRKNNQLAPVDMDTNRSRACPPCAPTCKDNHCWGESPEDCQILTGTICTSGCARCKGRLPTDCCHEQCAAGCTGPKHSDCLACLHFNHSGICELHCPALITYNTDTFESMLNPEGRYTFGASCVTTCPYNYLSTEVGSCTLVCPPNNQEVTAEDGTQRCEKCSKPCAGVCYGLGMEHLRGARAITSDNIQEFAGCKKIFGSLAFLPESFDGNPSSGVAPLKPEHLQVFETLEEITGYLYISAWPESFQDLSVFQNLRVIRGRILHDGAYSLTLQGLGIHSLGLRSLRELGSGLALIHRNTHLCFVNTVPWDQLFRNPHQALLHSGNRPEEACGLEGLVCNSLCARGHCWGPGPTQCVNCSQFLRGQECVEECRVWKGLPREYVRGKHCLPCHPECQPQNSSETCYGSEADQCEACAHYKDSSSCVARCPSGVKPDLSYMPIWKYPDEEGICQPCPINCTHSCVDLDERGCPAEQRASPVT
T9 sequence (Q61526 20-641 limits assumed): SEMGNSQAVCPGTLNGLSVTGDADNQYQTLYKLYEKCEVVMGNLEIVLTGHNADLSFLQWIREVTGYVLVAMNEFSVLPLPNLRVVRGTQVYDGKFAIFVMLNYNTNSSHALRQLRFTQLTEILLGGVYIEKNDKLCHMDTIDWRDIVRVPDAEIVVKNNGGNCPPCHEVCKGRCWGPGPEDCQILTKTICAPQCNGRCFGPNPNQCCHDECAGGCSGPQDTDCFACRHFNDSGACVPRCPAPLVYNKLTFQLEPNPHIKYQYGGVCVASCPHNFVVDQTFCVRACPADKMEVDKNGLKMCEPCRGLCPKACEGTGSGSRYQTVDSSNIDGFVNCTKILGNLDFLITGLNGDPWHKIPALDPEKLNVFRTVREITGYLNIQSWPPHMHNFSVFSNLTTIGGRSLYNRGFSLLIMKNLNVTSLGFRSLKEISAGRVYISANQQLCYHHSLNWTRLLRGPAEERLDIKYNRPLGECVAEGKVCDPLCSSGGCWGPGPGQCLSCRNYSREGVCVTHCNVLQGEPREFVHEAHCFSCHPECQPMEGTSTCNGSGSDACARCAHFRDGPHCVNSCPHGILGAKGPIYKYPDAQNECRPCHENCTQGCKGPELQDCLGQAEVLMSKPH

Binder | binding result [1] | binding result [2] | binding result [3] | binding result [4] | binding result [5] | binding result [6] | binding result [7] | binding result [8] | binding result [9] | Kd [10] [nM] | koff [10] [s⁻¹] | kon [10] [M⁻¹ s⁻¹] | binding result [11] | Kd [12] [nM] | Kd [13] [nM] | koff [13] [s⁻¹] | kon [13] [M⁻¹ s⁻¹] | Kd [14] [nM] | koff [14] [s⁻¹] | kon [14] [M⁻¹ s⁻¹]
B1 | no binding (tested: 40 nM) | no binding (tested: 40 nM) | no binding (tested: 40 nM) | no binding (tested: 40 nM) | no binding (tested: 40 nM) | no binding (tested: 40 nM) | no binding (tested: 40 nM) | no binding (tested: 40 nM) | no binding (tested: 40 nM) | 2.9 | 0.0005 | 180000 |  |  |  |  |  |  |  | 
B2 | no binding (tested: 40 nM) | no binding (tested: 40 nM) | no binding (tested: 40 nM) | no binding (tested: 40 nM) | no binding (tested: 40 nM) | no binding (tested: 40 nM) | no binding (tested: 40 nM) | no binding (tested: 40 nM) | no binding (tested: 40 nM) |  |  |  |  |  |  |  |  |  |  | 
B3 | no binding (tested: 40 nM) | no binding (tested: 40 nM) | no binding (tested: 40 nM) | no binding (tested: 40 nM) | no binding (tested: 40 nM) | no binding (tested: 40 nM) | no binding (tested: 40 nM) | no binding (tested: 40 nM) | no binding (tested: 40 nM) | 12 | 0.00063 | 53000 |  |  |  |  |  |  |  | 
B4 |  | no binding (tested: 40 nM) |  | no binding (tested: 40 nM) | no binding (tested: 40 nM) | no binding (tested: 40 nM) | no binding (tested: 40 nM) | no binding (tested: 40 nM) | no binding (tested: 40 nM) |  |  |  | no binding (tested: 40 nM) | 0.59 |  |  |  |  |  | 
B5 | no binding (tested: 40 nM) |  | no binding (tested: 40 nM) |  | no binding (tested: 40 nM) | no binding (tested: 40 nM) | no binding (tested: 40 nM) | no binding (tested: 40 nM) | no binding (tested: 40 nM) |  |  |  | no binding (tested: 40 nM) |  | 0.18 | 0.00016 | 870000 | 0.19 | 0.00026 | 1.3e+06
